The series concerns the molecule itself. In words: SDS-PAGE with Coomassie staining and anti-His immunoblot; purified His-tagged recombinant TgDIP13 resolved on a gel; bands at ~18 kDa (monomer) and ~36 kDa (dimer). (In western blotting, separated proteins are transferred to a membrane and probed.)

B1: His-tagged recombinant TgDIP13 (Toxoplasma gondii SSNA1/DIP13 homologue) (natural protein, UniProt A0A125YRV3 1-150, looked up)
chain: MTSTTNSNLHNYNHELVACIDDLRRKREEVHRQIIKEEEDRAKVQKEIALLQERLQKLNDSITRKIQARNEYDKTILETEAAYTKILESAQTLLHVLKRESVHLGRKTSGDRAELPGIGITGVGVDYSPNSVSELSHRRAEKGKPTAGAG
notes: TgDIP13, the SSNA1/DIP13 homologue of Toxoplasma gondii (ToxoDB entry TGME49_295450); the TgDIP13 gene was amplified from T. gondii cDNA with primers ML2448/ML2449 and cloned NdeI/XhoI into pET24a+; Apparent mass of the monomer ~18 kDa; also called T. gondii SSNA1/DIP13 homologue; not shown: His6, C-terminal, kept
As for B1, the stoichiometry N (usually a count of units in the complex or per binding partner) came to 2.

The values above are taken from PMC4914967, “An evolutionarily conserved SSNA1/DIP13 homologue is a component of both basal and apical complexes of Toxoplasma gondii” (Scientific Reports, 2016).
